Assays:
[1] = biological target: uL23(71pBpa), in 70S ribosomes, RNCs or living cells (E. coli) (UniProt P0ADZ0); assay: cross-linking; competition: SecA (2.5 uM) premixed with Ffh/SRP (0.5, 2.5, 12.5 uM) in buffer C, 10 min 30°C with 0.5 uM 70S ribosomes bearing pBpa at position 71 or 52 of uL23, UV 20 min on ice; anti-SecA and anti-Ffh blots
[2] = biological target: uL23(52pBpa), in 70S ribosomes, RNCs or living cells (E. coli) (UniProt P0ADZ0); assay: as above

For “Ffh, the protein component of the bacterial signal recognition particle (SRP), purified (from UniProt P0AGD7 1-453) (natural protein)”, the reduction of the SecA-uL23 cross-linking product with SRP equimolar to SecA [1] was 50% and the reduction of the SecA-uL23 cross-linking product with SRP equimolar to SecA [2] was 50%.
